Tests used:
Test in all cases: IEDB peptide-MHC binding, purified MHC/competitive/radioactivity; filed as Kd, often an IC50 or EC50 that approximates it; ≥ and ≤ were set here for values at or beyond the usual limits of such assays
[1] = target: HLA-A*03:01
[2] = target: HLA-A*11:01
[3] = target: HLA-A*31:01
[4] = target: HLA-A*33:01
[5] = target: HLA-A*68:01
[6] = source organism: Vaccinia virus WR
[7] = source organism: SARS coronavirus Tor2
[8] = source organism: Lymphocytic choriomeningitis virus (strain Armstrong)
[9] = source organism: Dengue virus 1 Brazil/97-11/1997
[10] = source organism: Dengue virus 2 Jamaica/1409/1983
[11] = source organism: Dengue virus 3 Singapore/8120/1995
[12] = source organism: Dengue virus 4 Philippines/H241/1956
[13] = source organism: Dengue virus 4 Dominica/814669/1981
[14] = source organism: Dengue virus 3 Martinique/1243/1999

Sequence	Kd [1, 6] [nM]	Kd [2, 6] [nM]	Kd [3, 6] [nM]	Kd [4, 6] [nM]	Kd [5, 6] [nM]	other results
KLCKNHAEK	13	19.9	543	≥ 38700	986	
ASTTENAAY	2170	307	≥ 71400	3880	2420	
DLTALLSCIR	13200	1560	510	76.8	10.9	
AVRAFLLRHY	862	1070	5240	≥ 70000	≥ 29500	
AIITPVVFYR	3700	11.3	11.6	311	1.72	
ISIYSRPKIK	143	1670	5070	8830	1730	
HSNLTETFR	112	40.6	0.596	4.95	0.414	
LQFTSLEIPR						Kd [1, 7]: 804 nM; Kd [2, 7]: 850 nM; Kd [3, 7]: 30.5 nM; Kd [4, 7]: 1210 nM; Kd [5, 7]: 402 nM
ELQSVLVTTY	2000	603	16100	≥ 61800	1480	
ELESLSKRER	≥ 70100	4230	3450	12600	388	
FIKPVSDLY	647	832	634	501	252	
QSYRQYRNY	2560	1600	2270	109	17100	
VVVKDDPDHY	≥ 28000	≥ 21600	≥ 70000	≥ 70000	≥ 70200	
PVDTEFINK	19900	89.5	12700	≥ 41800	3570	
NQNLIPSTVK	14100	360	≥ 24800	≥ 70000	406	
NTILLSDKGK	96.6	190	≥ 20300	12400	1.45	
VVKWKRDEH						Kd [1, 8]: ≥ 37200 nM; Kd [2, 8]: 187 nM; Kd [3, 8]: ≥ 34800 nM; Kd [4, 8]: ≥ 77700 nM; Kd [5, 8]: ≥ 77600 nM
EINEWLSSK	201	170	7100	18.6	3.76	
DISKLTNFK	781	338	5480	48	1.21	
GSSADLSLEK						Kd [2, 9]: 76 nM
AIFKLTYQNK						Kd [1, 10]: 41.4 nM; Kd [2, 10]: 57.5 nM
ATLAFHLTSR						Kd [3, 11]: 2.69 nM; Kd [5, 11]: 50.9 nM

Sequence	Kd [1, 6] [nM]	Kd [2, 6] [nM]	Kd [3, 6] [nM]	Kd [4, 6] [nM]	Kd [5, 6] [nM]	other results
NIVMLHTTER						Kd [4, 12]: 83.8 nM; Kd [5, 12]: 16.9 nM
AIKILIGFRK						Kd [1, 13]: 215 nM; Kd [2, 13]: 432 nM
ITANPVVTKK						Kd [2, 14]: 84.6 nM; Kd [5, 14]: 23.9 nM
VMAFHLSTR						Kd ([3]; source organism: Dengue virus 4 Thailand/0348/1991): 9.39 nM
DAIDGEYRLR						Kd [4, 10]: 246 nM; Kd [5, 10]: 17.1 nM
DTMTYKCPR						Kd [3, 9]: 4880 nM; Kd [4, 9]: 6.64 nM; Kd [5, 9]: 67.1 nM
DYEVDEDIFR						Kd [4, 12]: 471 nM
KKSKAINVLR						Kd [3, 10]: 163 nM
MLINRFTMK						Kd [1, 10]: 3.57 nM; Kd [2, 10]: 116 nM
IQKITVFNK					≥ 30300	
EDKAWLVHR						Kd [4, 10]: 15.6 nM
QAIDGEFRLR						Kd [5, 12]: 15.5 nM
KLVTQWCCR						Kd [3, 12]: 11.9 nM
WYMWQVKTQR						Kd [4, 12]: 2.54 nM
VTRLENLMWK						Kd [2, 10]: 128 nM
HLAIMAVFK						Kd [1, 12]: 5.77 nM; Kd [5, 12]: 70.6 nM
ALTPPVSDLK						Kd [1, 13]: 86.9 nM
EMGANFRAGR						Kd [3, 12]: 67.3 nM; Kd [4, 12]: 7.51 nM
ITENKIWGR						Kd ([4]; source organism: Dengue virus 1 Nauru/West Pac/1974): 141 nM
GIFLFLMSGK						Kd [1, 10]: 85.5 nM; Kd [2, 10]: 549 nM
IAVSMANIFR						Kd [3, 10]: 37.4 nM; Kd [4, 10]: 279 nM; Kd [5, 10]: 17.3 nM
QLKLNWFKK						Kd [1, 10]: 134 nM
